US20220411487A1

Molecular target: catalytically inactive full length human TMPRSS6 on HEK293 cells (HEK293/hTMPRSS6 (S762A)) (human) (UniProt Q8IU80)
Assay: flow cytometry, HEK293 cells expressing target

Sequence of catalytically inactive full length human TMPRSS6 on HEK293 cells (HEK293/hTMPRSS6 (S762A)) (human) (Q8IU80 10-811 S762A): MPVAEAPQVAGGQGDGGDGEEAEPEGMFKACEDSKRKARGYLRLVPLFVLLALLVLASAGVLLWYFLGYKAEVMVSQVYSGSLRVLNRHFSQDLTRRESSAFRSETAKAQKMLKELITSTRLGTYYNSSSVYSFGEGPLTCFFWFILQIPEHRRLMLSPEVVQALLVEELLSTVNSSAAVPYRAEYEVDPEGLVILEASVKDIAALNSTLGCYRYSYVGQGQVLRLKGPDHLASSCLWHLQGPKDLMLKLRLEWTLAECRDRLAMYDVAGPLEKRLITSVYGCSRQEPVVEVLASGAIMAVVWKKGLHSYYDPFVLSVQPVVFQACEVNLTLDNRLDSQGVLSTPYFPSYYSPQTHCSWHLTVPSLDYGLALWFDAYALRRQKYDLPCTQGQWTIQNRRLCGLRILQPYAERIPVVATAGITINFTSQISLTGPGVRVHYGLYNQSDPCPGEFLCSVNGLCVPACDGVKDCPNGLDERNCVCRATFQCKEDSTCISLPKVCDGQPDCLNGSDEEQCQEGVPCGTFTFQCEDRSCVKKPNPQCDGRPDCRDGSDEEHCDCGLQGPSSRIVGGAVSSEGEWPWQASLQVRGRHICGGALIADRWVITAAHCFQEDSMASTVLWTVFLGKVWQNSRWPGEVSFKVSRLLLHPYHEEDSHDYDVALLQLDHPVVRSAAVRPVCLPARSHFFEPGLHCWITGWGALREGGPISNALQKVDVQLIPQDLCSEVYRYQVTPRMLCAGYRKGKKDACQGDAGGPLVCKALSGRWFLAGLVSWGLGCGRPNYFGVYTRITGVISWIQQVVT

B1: REGN8023 (antibody, human IgG4 S228P, kappa, V domains shown)
VH: EVQLVESGGGLVKPGGSLRISCAASGFIFVDYAMHWVRQAPGKGLEWVSGISWNSGSIGYADSVKGRFTISRDNAKKSLYLQMSGLRPEDTALYYCVKSGFYYVRSYFDNWGQGTLVTVSS
VL: DIVMTQSPLSLPVTPGEPASISCRSSQSLLDSDDGNTYLDWYLRKPGQSPQLLIYTLSYRASGVPDRFSGSGSGTDFTLKISRVEADDVGVYYCMQRIEFPLTFGGGTKVEIKR
B1 gave an EC50 of 2 nM and a Max. Fold Binding (fold over unstained control) of 300.
